Experiment: yeast display, Sf9 membrane polyspecificity reagent, FACS + sequencing; frameworks hold sequencing errors
In short: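 Synthetic nanobody libraries on Saccharomyces cerevisiae BJ5465 were galactose-induced for 36–48 hours, stained 1 hour at 4 °C with 10% biotinylated, detergent-solubilized Sf9 membrane reagent and enriched on streptavidin microbeads. FACS then separated cells into low and high (top ~1%) gates by anti-HA (expression) and streptavidin (reagent binding) fluorescence. Genes were colony-PCR amplified, MiSeq 2 × 250 sequenced and CDR-length filtered. A clone's polyreactivity label is that of its gate of origin.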

Sequence	polyreactivity (PSR sort gate)
QVQLVESGGGLVQAGGSLRLSCAASGSIFYPYAMGWYRPAPGKERELVAGITGGGRTYYADSVKGRFTISRDNAKNTVYLQMNSLKPEDTAVFYCAAVDFVSYYIPFHYEYYWGQGTQVTVSS	low polyreactivity
QVQLVESGGGLVQAGGSLRLSCAASGSIFYPYAMGWYRQAPGKEREFVAAITRSGGSTSYADSVKGRFTISRDNAKNTVYLHMNSLKPEDTAVYYCAAGYWYPDYDGFDYWGQGTQVTVSS	low polyreactivity
QVQLVESGGGLVQAGGSLRLSCAASGSIFYPYAMGWYRQAPGKERELVAAIRRSGTTYYADSVKGRFTISRDNAKNTVYLQMNSLKPEDTAVYYCNKVRGQEPSNYDYWGQGTQVTVSS	low polyreactivity
QVQLVESGGGLVQAGGSLRLSCAASGSIFYPYAMGWYRQAPGKERELVAAISYSGGITYYADSVKGRFTISRDNAKNTVYLQMNSLKPEDTAVYYCNKLIYFKPAGSHDYWGQGTQVTVSS	high polyreactivity
QVQLVESGGGLVQAGGSLRLSCAASGSIFYPYAMGWYRQAPGKERELVAAITWSGGDTYYADSVKGRFTISRDKAKYTDYLQMNSLKPEDTAVYYSAAEWNVSPYDYWGQGTQVTVSS	low polyreactivity
QVQLVESGGGLVQAGGSLRLSCAASGSIFYPYAMGWYRQAPGKERELVADINSDGSTTYADSVKGRFTISRDNAKNTVYLQMNSLKPEDTAVYYCAVDVSVNWPLLERYEYWGQGTQVTVSS	low polyreactivity
QVQLVESGGGLVQAGGSLRLSCAASGSIFYPYAMGWYRQAPGKEREWVATITLSGGRTYYADSVKGRFTISRDNAKNTVYLQMNSLKPEDTAVYYCATDYAYGAFLYDYWGQGTQVTVSS	low polyreactivity
QVQLVESGGGLVQAGGSLRLSCAASGSIFYPYVMGWYRQAPGKERELVAAITTSVGSTYYADSVKGRFTISRDNAKNTVYLQMNSLKPEDTAVYYCAAIYFGSRRPGRYNYWGQGTQVTVSS	high polyreactivity
QVQLVESGGGLVQAGGSLRLSCAASGSIFYQNAMGWYRQAPGKEREFVAAIRSSGSSTYYADSVKGRFTISRDNAKNTVYLQMNSLKPEDTAVYYCAAPSSRGQGRNFDYWGQGTQVTVSS	high polyreactivity
QVQLVESGGGLVQAGGSLRLSCAASGSIFYQYAMGWYRQAPGKEREMLAAIRYSGSSTYYADSVKGRFTISRDNAKNTVYLQMNSLKPEDTEVYYCGKTLRRRRGDRRYRVIEMDHWGQGTQVTVSS	low polyreactivity
QVQLVESGGGLVQAGGSLRLSCAASGSIFYQYAMGWYRQARGKERELVAAITWDGSRTYYADSVKGRFTISRDNAKNTVYLQMNSLKPEDTAVYYCNANLAWRRYDGTYNYWGQGSQVTVSS	high polyreactivity
QVQLVESGGGLVQAGGSLRLSCAASGSIFYQYGMGWYRQAPGKERELVAAITYDDDSTYYADSVKGRFTISRDNAKNTVYLQMNSLKPEDTAVYYCAAYYYKLEYDYWGQGTQVTVSS	high polyreactivity
QVQLVESGGGLVQAGGSLRLSCAASGSIFYRNAMGWYRQAPGKERELVAAISSGTSTYYADSVKGRFTISRDNAKNTVYLQMNSLKPEDTAVYYCAKQYAFVPWWSRYHGELDYWGQGTQVTVSS	low polyreactivity
QVQLVESGGGLVQAGGSLRLSCAASGSIFYRNAMGWYRQAPGKERELVAAISWRGGSTYYADSVKGRFTISRDNAKNTVFLQMNSLKPEDTAVYYCAAAQRVNHVWYDYWGQGTQVTVSS	low polyreactivity
QVQLVESGGGLVQAGGSLRLSCAASGSIFYRNAMGWYRQAPGNERELVAAITSGASTYYADSVKGRFTISRDNAKNTVYLQMNSLKPEDTEVYYCAADSDSQWGMDYWGQGTQVTVSS	low polyreactivity
QVQLVESGGGLVQAGGSLRLSCAASGSIFYRNVMGWYRQAPGKERELVAAISQRGGSTYYADSVKGRFTISRDNAKNTVYLQMNSLKPEDTAVYYCIAASRGAGTSIWSWYDHWGQGTQVTVSS	low polyreactivity
QVQLVESGGGLVQAGGSLRLSCAASGSIFYRNVMGWYRQAPGKERELVAVITGSGDSTFYADSVKGRFTISRDNAKNTVYLQMNSLKPEDTAVYYCNARQVSGGYYYWGQGTQVTVSW	low polyreactivity
QVQLVESGGGLVQAGGSLRLSCAASGSIFYRYAMGWYRQAPGKERELVAAITSTGSRTFYADSVKVRFTISRDNAKNTVYLQMNSLKPEDTAVYYCAADARYNGYHGVDYWGQGTLVTVSS	high polyreactivity
QVQLVESGGGLVQAGGSLRLSCAASGSIFYRYAMGWYRQAPGKESELVAAITQSTDSTYYADSVKGRFTISRDNAKNTVYLQMNSLKPEDTAVYYCAAYLVYYRPYAYGYWGQGTQVTVSS	low polyreactivity
QVQLVESGGGLVQAGGSLRLSCAASGSIFYRYTMGWYRQAPGKERELVAAISSRGGSTYYADSVKGRFTISRDNAKNTVYLQMNSLKPEDTAVYYCAARFSYWAPSKGYGYWGQGTQVTVSS	high polyreactivity
QVQLVESGGGLVQAGGSLRLSCAASGSIFYRYTMGWYRQAPGKERELVAVISRRGGSTYYADSVKGRFTISRDNAKNTVYLQMNSLKPEDTAVYYCAVRQYRTSVRQGNTLWDDYWGQGTQVTVSS	high polyreactivity
QVQLVESGGGLVQAGGSLRLSCAASGSIFYSNAMGWYRQAPGKERELVAAIHWSGGSTYYADSVKGRFTISRDNAKNTFYLLMNSLKPEDTAVYYCAADYGWGPIYDYWGQGTQVNVSS	low polyreactivity

Sequence	polyreactivity (PSR sort gate)
QVQLVESGGGLVQAGGSLRLSCAASGSIFYSNAMGWYRQAPGKERELVAAINWSGVRTYYADSVKGRFTISRDNAKNTVYLQMNSLKPEDTAVYYCAAKTYQQQIVRPMYYWGQCTQVTVSS	high polyreactivity
QVQLVESGGGLVQAGGSLRLSCAASGSIFYSNAMGWYRQAPGKERELVAAITVGGGRTYYADSVKGRFTISRDNAKYTVYLQMNSLNPEDTAVYYCAADSHASTYDYWGQGTQVTVSS	low polyreactivity
QVQLVESGGGLVQAGGSLRLSCAASGSIFYSNAMGWYRQAPGKERELVADISWSDGSTYYADSVKGRFTISRDNAKNNVYLQMNSLKPEDTEVYYCARKAGYSYFRRYDYWGQGTQVTVSS	low polyreactivity
QVQLVESGGGLVQAGGSLRLSCAASGSIFYSNKGWYRQAPGKEREFVAAISGSGVRTYYADSVKGRFTISRDNAKNTVYLQMNSLKPEDTAVYYCNAGRRQDYRYIYWGQGTQVTVSS	high polyreactivity
QVQLVESGGGLVQAGGSLRLSCAASGSIFYSNTIGWYRQAPRKERELDAAITSGGGTNYADSVKGRFTISRDNAKNTVYLQMNSLKPEDTAVYYCAAVTKTLYRSYFLMYYWGQGTQVTVSS	high polyreactivity
QVQLVESGGGLVQAGGSLRLSCAASGSIFYSNVMGWYRQAPGKERELVARITDAGSTNYADSVKGRFTISRDNAKNTVYLQMNSLKPEDTAVYYCNARLVIYTYDYWGQGTQVTVSS	low polyreactivity
QVQLVESGGGLVQAGGSLRLSCAASGSIFYSNVMGWYRQAPGKERELVARITVAGSTNYADSVKGRFTISRDNAKNTVYLQMNSLKPEDTAVYYCNARLVIYTYDYWGQGTQVTVSS	low polyreactivity
QVQLVESGGGLVQAGGSLRLSCAASGSIFYSNVMGWYRQAPGKERELVASITNGGGTYYADSVKGRFTISRDNAKTTVYLQMNSLKPEDTAVYYCARRVYYWGQGTQVTVSS	high polyreactivity
QVQLVESGGGLVQAGGSLRLSCAASGSIFYSNVMGWYRQAPGQERELVARITDAGSTNYADSVKGRFTISRDNAKHTVYFQMNSLKPEDTAVYYCNARLVIYTFDYWGQGTLVTVSS	low polyreactivity
QVQLVESGGGLVQAGGSLRLSCAASGSIFYSYAMAWYRQAPGKERELVAAITSGGSTYYADSVKGRFTISRDNAKNTVYLQMNTLKPEDTAVYYCAKRWPAYWGKGHGSWGQGTQVTVSS	high polyreactivity
QVQLVESGGGLVQAGGSLRLSCAASGSIFYSYAMGWYIQAHGKERELVARINYRGGSTYYADSVKGRFTISRDNAKNTVYLQMNSLKPEDTAVFYCAKRSYWSSNPRDYWGQGTKVTVSS	high polyreactivity
QVQLVESGGGLVQAGGSLRLSCAASGSIFYSYAMGWYRQAPGKERELVAAISRSGVSTYYADSVKGRFTISRDNAKNTVYLQMNSLKPEDTAVYYCASPYFVSYQGYDYWGQGTQVTVSS	high polyreactivity
QVQLVESGGGLVQAGGSLRLSCAASGSIFYSYGMGWYRQAPGKERELVAAITSSGGGTYYADSVKGRFTISRDNAKNTVYLQMNSLKPEDTAVYYCAADDRNYNYYPTFYYWGQGTQVTVSS	low polyreactivity
QVQLVESGGGLVQAGGSLRLSCAASGSIFYSYVMGWYRQAPGKERELVAAISRNGQSTYYADSVKGRFTISRDNAKNTVYLQMNSLKPEDTAVYYCATRGTKSIKDVPGIRYGYWGQGTQVTVSS	high polyreactivity
QVQLVESGGGLVQAGGSLRLSCAASGSIFYTYAMGWYRQAPGKERELVAGISWRGGSTYYADSVKGRYTISRDNAKNTVYLQMNSLNPEDTAVYYCAASYFWDRVPGRGIHDYWGQGTQVTVSS	high polyreactivity
QVQLVESGGGLVQAGGSLRLSCAASGSIFYTYAMGWYRQAPGKERELVASITNDDSTNYADSVKGRFTISRDNAKKTVYLQMNSLKPEDTAVYYCADDSNWIYDIEYDYWGQGTQVTVSS	low polyreactivity
QVQLVESGGGLVQAGGSLRLSCAASGSIFYVNAMGWYRQAPGKERELVASITASGGTTYYADSVKGRFTISRDNAKNNVYLQMNSLKPEDTAVYYCAATFIQVVVNVQLYDYDYWGQGTQVTVSS	low polyreactivity
QVQLVESGGGLVQAGGSLRLSCAASGSIFYVNDMGWYRQAPGKERELVAAISSTGSTKYADSVKGRFTISRDNAKNTVYLQMNSLKPEDTAVYYCAKEPGHRFEFDYWGQGTQVTVSS	low polyreactivity
QVQLVESGGGLVQAGGSLRLSCAASGSIFYVYAMGWYRQAPGKERELVAAINTSSGDTYYADSVKGRFTISRDNAKNTVYLQMNSLKPEDTAVYYCNARTRSSYTIGSYLLSYDYWGQGTQVTVSS	high polyreactivity
QVQLVESGGGLVQAGGSLRLSCAASGSIFYVYAMGWYRQAPGKERELVAAITSSGTTNYADSVKGRFTISRDNAKNTVYLQMNSLKPEDTAVYYCAADAYSGAYFTYLGEIYDYWGQGTQVTVSS	low polyreactivity
QVQLVESGGGLVQAGGSLRLSCAASGSIFYVYAMGWYRQAPGKERELVATISTGGSTYYADSVKGRFTISRDNAKNTVYLQMNSLKPEDTAVYYCNAQFTPRYRGGYDSWGQCTQVTVSS	low polyreactivity

— the nanobody polyreactivity screen of Harvey et al. (2022)
